Laboratory results as given in PMC7418559 (2020).

Target: CK2β 1-193 (Homo sapiens, UniProt P67870)
Assay: microscale thermophoresis

CK2β 1-193, sequence (P67870 1-193): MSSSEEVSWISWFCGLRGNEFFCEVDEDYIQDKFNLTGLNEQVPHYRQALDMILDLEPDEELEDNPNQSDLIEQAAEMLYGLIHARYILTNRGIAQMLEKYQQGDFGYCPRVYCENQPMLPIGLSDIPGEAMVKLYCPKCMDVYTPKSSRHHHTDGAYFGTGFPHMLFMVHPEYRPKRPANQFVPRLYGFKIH

Kd: 12 nM
B1: CK2α 1-335 (protein)
chain: MSGPVPSRARVYTDVNTHRPREYWDYESHVVEWGNQDDYQLVRKLGRGKYSEVFEAINITNNEKVVVKILKPVKKKKIKREIKILENLRGGPNIITLADIVKDPVSRTPALVFEHVNNTDFKQLYQTLTDYDIRFYMYEILKALDYCHSMGIMHRDVKPHNVMIDHEHRKLRLIDWGLAEFYHPGQEYNVRVASRYFKGPELLVDYQMYDYSLDMWSLGCMLASMIFRKEPFFHGHDNYDQLVRIAKVLGTEDLYDYIDKYNIELDPRFNDILGRHSRKRWERFVHSENQHLVSPEALDFLDKLLRYDHQSRLTAREAMEHPYFYTVVKDQARMG
modifications: CK2β fluorescently labelled (RED-NHS)
